Earlier results in paper PMC8463877.

How the values were obtained:
[1] = biological target: apoC-II fibrils (Homo sapiens) (UniProt P02655)
[2] = biological target: Aβ42 fibrils Aβ1-42 (Homo sapiens) (UniProt P05067)
Chain of Aβ42 fibrils Aβ1-42 (Homo sapiens) (P05067 1-42): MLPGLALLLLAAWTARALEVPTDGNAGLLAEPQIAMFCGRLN

Chain of αB-crystallin (P02511 whole entry): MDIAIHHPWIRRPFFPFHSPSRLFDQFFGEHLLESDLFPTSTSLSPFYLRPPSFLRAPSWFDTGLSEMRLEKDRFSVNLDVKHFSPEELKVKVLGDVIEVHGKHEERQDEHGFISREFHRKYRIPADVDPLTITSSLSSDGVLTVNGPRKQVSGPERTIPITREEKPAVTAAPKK
Chain of apoC-II fibrils (Homo sapiens) (P02655 23-101): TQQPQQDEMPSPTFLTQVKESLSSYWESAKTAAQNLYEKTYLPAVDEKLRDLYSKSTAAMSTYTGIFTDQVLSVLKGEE

Substance: αB-crystallin (from UniProt P02511)
- Kd [1]: 5.4 µM
- Kd [2]: 2100 nM
